The Immune Epitope Database (IEDB)
Blank lines part the entries; values can stand above or below the sequence they belong to.

What was measured:
HLA-B*18:01 = assay: IEDB peptide-MHC binding, purified MHC/competitive/radioactivity; filed as Kd, often an IC50 or EC50 that approximates it; ≥ and ≤ were set here for values at or beyond the usual limits of such assays
HLA-B*40:01 = assay: as above
HLA-B*40:02 = assay: as above
HLA-B*44:02 = assay: as above
HLA-B*44:03 = assay: as above
HLA-B*45:01 = assay: as above
HLA-B*15:01 [1] = assay: as above
HLA-A*02:01 [2] = assay: as above
HLA-A*02:02 = assay: as above
HLA-A*02:03 = assay: as above
HLA-A*02:06 = assay: as above
HLA-A*68:02 = assay: as above
HLA-B*15:01 [3] = assay: IEDB peptide-MHC binding, purified MHC/competitive/fluorescence; filed as Kd, often an IC50 or EC50 that approximates it; ≥ and ≤ were set here for values at or beyond the usual limits of such assays
HLA-B*08:01 = assay: IEDB peptide-MHC binding, purified MHC/competitive/radioactivity; filed as Kd, often an IC50 or EC50 that approximates it; ≥ and ≤ were set here for values at or beyond the usual limits of such assays; settings: source organism: Vaccinia virus WR
HLA-A*02:01 [4] = assay: IEDB peptide-MHC binding, purified MHC/competitive/fluorescence; filed as Kd, often an IC50 or EC50 that approximates it; ≥ and ≤ were set here for values at or beyond the usual limits of such assays; settings: source organism: Influenza A virus (A/Harbin/1/1988(H1N2))
HLA-A*32:01 = assay: IEDB peptide-MHC binding, purified MHC/competitive/radioactivity; filed as Kd, often an IC50 or EC50 that approximates it; ≥ and ≤ were set here for values at or beyond the usual limits of such assays; settings: source organism: Vaccinia virus WR
HLA-A*26:01 = assay: IEDB peptide-MHC binding, purified MHC/competitive/fluorescence; filed as Kd, often an IC50 or EC50 that approximates it; ≥ and ≤ were set here for values at or beyond the usual limits of such assays; settings: source organism: Bacillus anthracis str. A2012
[5] = source organism: SARS coronavirus Tor2
[6] = source organism: Lassa virus Josiah
[7] = source organism: Vaccinia virus WR
[8] = source organism: Mammarenavirus machupoense
[9] = source organism: Trypanosoma cruzi
[10] = source organism: Mammarenavirus lassaense
[11] = source organism: Mammarenavirus juninense

Sequence: EEVAIILASF
- Kd (HLA-B*18:01; [5]): 108 nM
- Kd (HLA-B*40:01; [5]): 3430 nM
- Kd (HLA-B*40:02; [5]): 406 nM
- Kd (HLA-B*44:02; [5]): 77.6 nM
- Kd (HLA-B*44:03; [5]): 19.2 nM
- Kd (HLA-B*45:01; [5]): 1390 nM

Sequence: QIHLAIMAVF
- Kd (HLA-B*15:01 [1]; source organism: Dengue virus 4 Philippines/H241/1956): 17 nM

Sequence: AEAQMSIQLI
- Kd (HLA-B*18:01; [6]): ≥ 23500 nM
- Kd (HLA-B*40:01; [6]): 1300 nM
- Kd (HLA-B*40:02; [6]): 53.9 nM
- Kd (HLA-B*44:02; [6]): 34.6 nM
- Kd (HLA-B*44:03; [6]): 69.1 nM
- Kd (HLA-B*45:01; [6]): 78.9 nM

Sequence: MMKTYIEFV
- Kd (HLA-B*15:01 [1]; [7]): 170 nM

Sequence: RECYAQRFYL
- Kd (HLA-B*18:01; [8]): 137 nM
- Kd (HLA-B*40:01; [8]): 9580 nM
- Kd (HLA-B*40:02; [8]): 5.55 nM
- Kd (HLA-B*44:02; [8]): 525 nM
- Kd (HLA-B*44:03; [8]): 250 nM
- Kd (HLA-B*45:01; [8]): 1440 nM

Sequence: GLSRPLLRL
- Kd (HLA-A*02:01 [2]; source organism: Hepatitis B virus subtype ayw): ≥ 5000 nM

Sequence: EVLRPTTLV
- Kd (HLA-A*02:01 [2]; [9]): 13700 nM
- Kd (HLA-A*02:02; [9]): 6570 nM
- Kd (HLA-A*02:03; [9]): 5480 nM
- Kd (HLA-A*02:06; [9]): 1460 nM
- Kd (HLA-A*68:02; [9]): 6.8 nM

- Kd (HLA-B*15:01 [3]; source organism: Chloroflexus aurantiacus J-10-fl): ≥ 20000 nM
Sequence: AVDLSHFL

Sequence: CELYHYQECV
- Kd (HLA-B*18:01; [5]): ≥ 36200 nM
- Kd (HLA-B*40:01; [5]): 1720 nM
- Kd (HLA-B*40:02; [5]): 8200 nM
- Kd (HLA-B*44:02; [5]): 7850 nM
- Kd (HLA-B*44:03; [5]): 4200 nM
- Kd (HLA-B*45:01; [5]): 425 nM

Sequence: NDFVSDADST
- Kd (HLA-B*18:01; [5]): ≥ 70500 nM
- Kd (HLA-B*40:01; [5]): ≥ 69600 nM
- Kd (HLA-B*40:02; [5]): ≥ 70800 nM
- Kd (HLA-B*44:02; [5]): ≥ 32700 nM
- Kd (HLA-B*44:03; [5]): ≥ 70100 nM
- Kd (HLA-B*45:01; [5]): 2600 nM

Sequence: SELRPDTRY
- Kd (HLA-B*18:01; [5]): 11200 nM
- Kd (HLA-B*40:01; [5]): 11300 nM
- Kd (HLA-B*40:02; [5]): 3140 nM
- Kd (HLA-B*44:02; [5]): 520 nM
- Kd (HLA-B*44:03; [5]): 714 nM
- Kd (HLA-B*45:01; [5]): 1650 nM

Sequence: PENQEDPLVL
- Kd (HLA-B*18:01; [8]): ≥ 70400 nM
- Kd (HLA-B*40:01; [8]): ≥ 39500 nM
- Kd (HLA-B*40:02; [8]): ≥ 70800 nM
- Kd (HLA-B*44:02; [8]): ≥ 70200 nM
- Kd (HLA-B*44:03; [8]): ≥ 70100 nM
- Kd (HLA-B*45:01; [8]): ≥ 70000 nM

Sequence: LGLNKIVRMY
- Kd (HLA-B*15:01 [3]; source organism: Human immunodeficiency virus 1): 1960 nM

- Kd (HLA-A*02:01 [2]; source organism: Homo sapiens): ≥ 54300 nM
- Kd (HLA-A*02:06; source organism: Homo sapiens): ≥ 64600 nM
- Kd (HLA-A*68:02; source organism: Homo sapiens): 15900 nM
Sequence: ELEALKTEL

Sequence: MVHIYFVSL
- Kd (HLA-B*08:01): 1.35 nM
- Kd (HLA-B*15:01 [1]; [7]): 5460 nM

Sequence: KENLYIKSI
- Kd (HLA-B*18:01; [10]): ≥ 28800 nM
- Kd (HLA-B*40:01; [10]): 14200 nM
- Kd (HLA-B*40:02; [10]): 19.1 nM
- Kd (HLA-B*44:02; [10]): 232 nM
- Kd (HLA-B*44:03; [10]): 118 nM
- Kd (HLA-B*45:01; [10]): 2150 nM

Sequence: TVLEKNVTV
- Kd (HLA-A*02:01 [4]): 5.8 nM

Sequence: LVQYRILPM
- Kd (HLA-A*02:02; [7]): 14800 nM
- Kd (HLA-A*02:03; [7]): 1170 nM
- Kd (HLA-A*02:06; [7]): 4670 nM
- Kd (HLA-B*15:01 [1]; [7]): 63.3 nM

Sequence: MSIDHCSSF
- Kd (HLA-B*15:01 [1]; [7]): 0.952 nM

Sequence: LTFDYVVTF
- Kd (HLA-A*32:01): 17.2 nM
- Kd (HLA-B*15:01 [1]; [7]): 2.45 nM

Sequence: MDGIQYGRSG
- Kd (HLA-B*18:01; [5]): ≥ 70500 nM
- Kd (HLA-B*40:01; [5]): ≥ 69600 nM
- Kd (HLA-B*40:02; [5]): ≥ 70800 nM
- Kd (HLA-B*44:02; [5]): ≥ 49900 nM
- Kd (HLA-B*44:03; [5]): ≥ 58600 nM
- Kd (HLA-B*45:01; [5]): 10900 nM

- Kd (HLA-A*02:01 [2]; source organism: Homo sapiens): ≥ 63100 nM
- Kd (HLA-A*02:02; source organism: Homo sapiens): 4230 nM
- Kd (HLA-A*02:03; source organism: Homo sapiens): 11900 nM
- Kd (HLA-A*02:06; source organism: Homo sapiens): ≥ 68500 nM
- Kd (HLA-A*68:02; source organism: Homo sapiens): ≥ 65200 nM
Sequence: PLESDAVECL

Sequence: FQRALIFILL
- Kd (HLA-B*15:01 [1]; source organism: Dengue virus 2 Jamaica/1409/1983): 117 nM

Sequence: RIEDMFLTSV
- Kd (HLA-A*02:01 [2]; [7]): 48 nM
- Kd (HLA-A*02:02; [7]): 548 nM
- Kd (HLA-A*02:03; [7]): 71 nM
- Kd (HLA-A*02:06; [7]): 168 nM

Sequence: SDQKFVDVI
- Kd (HLA-B*18:01; [11]): ≥ 26300 nM
- Kd (HLA-B*40:01; [11]): ≥ 70700 nM
- Kd (HLA-B*40:02; [11]): 4430 nM
- Kd (HLA-B*44:02; [11]): ≥ 25400 nM
- Kd (HLA-B*44:03; [11]): ≥ 78100 nM
- Kd (HLA-B*45:01; [11]): 16700 nM

Sequence: EISSIISLM
- Kd (HLA-A*26:01): 9.8 nM

Sequence: GDYFVLTSHT
- Kd (HLA-B*18:01; [5]): ≥ 70500 nM
- Kd (HLA-B*40:01; [5]): ≥ 69600 nM
- Kd (HLA-B*40:02; [5]): ≥ 37700 nM
- Kd (HLA-B*44:02; [5]): ≥ 50900 nM
- Kd (HLA-B*44:03; [5]): ≥ 22600 nM
- Kd (HLA-B*45:01; [5]): ≥ 70000 nM
